From patent US20230285583A1, “LIQUID FORMULATION OF LONG-ACTING CONJUGATE OF GLUCAGON, GLP-1, AND GIP TRIGONAL AGONIST” (HANMI PHARM, CO., LTD., priority 2020, published 2023)
Bridge positions count the residues as written; N and C are the ends. Square brackets hold non-standard residues; d marks the D form. Ends that are not written are not given here. Aib = CC(C)(N)C(=O)O

T1: human GIP receptor (human, UniProt P48546 22-466)
T1 sequence (looked up): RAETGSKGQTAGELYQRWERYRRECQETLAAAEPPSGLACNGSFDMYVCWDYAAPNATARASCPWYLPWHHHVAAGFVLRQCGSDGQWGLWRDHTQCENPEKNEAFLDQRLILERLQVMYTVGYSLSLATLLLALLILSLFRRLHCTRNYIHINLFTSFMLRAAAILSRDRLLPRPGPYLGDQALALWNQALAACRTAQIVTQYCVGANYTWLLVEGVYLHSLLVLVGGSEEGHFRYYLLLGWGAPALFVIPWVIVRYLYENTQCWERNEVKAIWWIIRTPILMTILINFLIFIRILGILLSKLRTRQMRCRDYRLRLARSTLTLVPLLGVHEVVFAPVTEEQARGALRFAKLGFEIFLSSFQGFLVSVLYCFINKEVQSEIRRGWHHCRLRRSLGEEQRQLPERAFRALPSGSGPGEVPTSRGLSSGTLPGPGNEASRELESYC


Assays:
Test in all cases: cell-based or functional assay
human GIP receptor = molecular target: T1, human GIP receptor
human GLP-1 receptor = human GLP-1 receptor (human, UniProt P43220 24-463)
human GCG receptor = human GCG receptor (human, UniProt P47871 26-477)
human GCG receptor, sequence (P47871 26-477): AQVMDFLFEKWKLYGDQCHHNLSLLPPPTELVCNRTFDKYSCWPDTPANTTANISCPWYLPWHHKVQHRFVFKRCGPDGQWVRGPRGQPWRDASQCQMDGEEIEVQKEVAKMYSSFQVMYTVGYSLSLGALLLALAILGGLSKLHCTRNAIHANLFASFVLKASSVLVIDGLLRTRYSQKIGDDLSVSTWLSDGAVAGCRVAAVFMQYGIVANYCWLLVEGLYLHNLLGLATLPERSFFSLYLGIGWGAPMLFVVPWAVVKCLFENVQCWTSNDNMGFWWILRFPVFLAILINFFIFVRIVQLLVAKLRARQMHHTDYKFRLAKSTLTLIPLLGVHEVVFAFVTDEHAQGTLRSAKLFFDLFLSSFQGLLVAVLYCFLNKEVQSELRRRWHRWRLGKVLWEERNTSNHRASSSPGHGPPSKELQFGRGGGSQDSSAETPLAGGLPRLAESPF

Binder | In Vitro Activity Compared to Native Peptide (%) vs. GIP (relative titer from cAMP EC50) (human GIP receptor) | In Vitro Activity Compared to Native Peptide (%) vs. GLP-1 (relative titer from cAMP EC50) (human GLP-1 receptor) | In Vitro Activity Compared to Native Peptide (%) vs. Glucagon (relative titer from cAMP EC50) (human GCG receptor)
H[Aib]QGTFTSDYSKYLDEKRQKEFVQWLLNTKC (bridge 16-20; not fully specified (bridges)) [trigonal agonist of SEQ ID NO: 18] | 0.2% | 39.1% | 2.6%
H[Aib]QGTFTSDYSKYLDEKRQKEFVQWLLDTC (bridge 16-20; not fully specified (bridges)) [trigonal agonist of SEQ ID NO: 13] | 0.3% | 44.1% | 7.5%
Y[Aib]QGTFTSDYSKYLDECRAKDFVQWLLDHHPSSGQPPPS (bridge 16-20; not fully specified (bridges)) [trigonal agonist of SEQ ID NO: 21] | 17.2% | 15.8% | 172%
H[Aib]QGTFTSDYSIAMDEIHQKDFVNWLLAQC (lactam 16-20) [trigonal agonist of SEQ ID NO: 16] | 2.4% | 27.1% | 0.7%
H[Aib]QGTFTSDYSKYLDEKRQKEFVQWLLNTC (bridge 16-20; not fully specified (bridges)) [trigonal agonist of SEQ ID NO: 12] | 0.1% | 14.4% | 2%
Y[Aib]QGTFTSDYSKCLDEKRAKDFVQWLLDHHPSSGQPPPS (bridge 16-20; not fully specified (bridges); ends not checked) [trigonal agonist of SEQ ID NO: 25] | 64.4% | 15.1% | 71.3%
H[Aib]QGTFTSDYSKYLDEKAQKEFVQWLLDTC (bridge 16-20; not fully specified (bridges)) [trigonal agonist of SEQ ID NO: 3] | 0.8% | 142% | 0.7%
Y[Aib]QGTFTSDYSKCLDEKAAKEFVQWLLDHHPSSGQPPPS (bridge 16-20; not fully specified (bridges)) [trigonal agonist of SEQ ID NO: 23] | 107% | 27.9% | 8.8%
H[Aib]QGTFTSDYSKYLDEKRAKEFVQWLLDHHPSSGQPPPSC (bridge 16-20; not fully specified (bridges)) [trigonal agonist of SEQ ID NO: 11] | 2.7% | 67.4% | 50.5%
H[Aib]EGTFTSDYSIAMDEIHQKDFVNWLLAQC (lactam 16-20) [trigonal agonist of SEQ ID NO: 14] | 1.3% | 161% | 8.4%
Y[Aib]QGTFTSDYSKYLDECAAKDFVQWLLDHHPSSGQPPPS (bridge 16-20; not fully specified (bridges)) [trigonal agonist of SEQ ID NO: 22] | 39.8% | 28.5% | 46.2%
Y[Aib]QGTFTSDYSKCLDERAAKEFVQWLLDHHPSSGQPPPS (bridge 16-20; not fully specified (bridges)) [trigonal agonist of SEQ ID NO: 24] | 62.8% | 24.3% | 9.6%
H[Aib]EGTFTSDYSIAMDEIHQKDFVDWLLAEC (bridge 16-20; not fully specified (bridges)) [trigonal agonist of SEQ ID NO: 15] | 0.1% | 30.6% | 1.4%
H[Aib]QGTFTSDYSKYLDEKRQKEFVNWLLAQC (bridge 16-20; not fully specified (bridges)) [trigonal agonist of SEQ ID NO: 17] | 0.8% | 57.9% | 4.9%
Y[Aib]QGTFTSDYSKYLDECAAKEFVQWLLDHHPSSGQPPPS (bridge 16-20; not fully specified (bridges)) [trigonal agonist of SEQ ID NO: 19] | 92.9% | 64.6% | 60.1%
Y[Aib]QGTFTSDYSKCLDEKRAKEFVQWLLDHHPSSGQPPPS (bridge 16-20; not fully specified (bridges)) [trigonal agonist of SEQ ID NO: 2] | 59.7% | 20.1% | 140%
H[Aib]QGTFTSDYSKCLDEKRAKEFVQWLLDHHPSSGQPPPS (bridge 16-20; not fully specified (bridges)) [trigonal agonist of SEQ ID NO: 20] | 11.6% | 95.4% | 25.2%
